In paper PMC10866564 (Science Advances, 2024):
Where a chain is given by its changes, count along the chain named. Names may count otherwise.

How the values were obtained:
Experiment in all cases: SEC-MALS
6×His-SYP-3 (C. elegans) = 6×His-SYP-3 (C. elegans) (UniProt O62238)
6×His-SYP-3 = molecular target: T1, 6×His-SYP-3 (C. elegans, UniProt O62238 1-224)
T1 sequence: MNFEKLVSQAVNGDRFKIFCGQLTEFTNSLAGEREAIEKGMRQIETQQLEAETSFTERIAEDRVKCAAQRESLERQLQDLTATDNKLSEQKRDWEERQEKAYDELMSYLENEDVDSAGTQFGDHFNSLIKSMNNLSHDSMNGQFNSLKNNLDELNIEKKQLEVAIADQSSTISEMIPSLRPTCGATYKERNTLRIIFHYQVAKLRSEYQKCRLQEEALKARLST

SEC-MALS = molecular target: the molecule itself

Molecule: SYP-5 (recombinant, untagged) (natural protein)
- stoichiometry N (copies of each protein in the complex) (6×His-SYP-3 (C. elegans)): 4

Molecule: SYP-1 (recombinant, untagged) (natural protein)
- stoichiometry N (copies of each protein in the complex) (6×His-SYP-3 (C. elegans)): 4

B1: SYP-4 (recombinant, untagged) (natural protein)
chain: MSFPTLQVRPNEKNPKVLRCHEFLRQSNQLVERNMINTEGRKMLAKLLTKMVSEAKGIYALDERRAELAKSGKLQEKLKSAYQTSLTVMEDRLHIAELSRQVQEKKLTVQQKYYECDDLRKSVQETNTEARRVQEINEQRLVDTTRATEELIVKSASILKNLENSSDVHKLRAMEEEKRILEEVVEGLRDQKKCLADDIRTKKATLKAESKKSFEKTVIECAKHYKLHQSLMPKLDKSKRSLETLKDEEENRRICGSLSLDETMQFDRSFILASMDKTNKPEKAVQQLTSKSSEVSITPQISETAKSSFSKEPIPTQHPMEVGEEPVIEHSAEESVHIEPPNVTEIREVVPQITIQPTRQDSVVQRDAEELDTSAVPSPQPESILDEPEEEEEELSNHENHADQSMDVMEVDQEVPEESPMEVGEQEEIEQPSVFKDILATEQAALSQEQEPEIVEKQADNDVQFVDDQQVGAQLDVEDEEEVMSENGSNKSNNFSFNFFGNSKGTSAGEGGGEGNFDFNFDGIGAGDDGSNNGGSTGDLDFLNYDGEDEGKGSGNTQSDPFGFASNGNAAGGGGDGSFNFNFDGDGEGGATSGAGGNSTSFFNF
- stoichiometry N (6×His-SYP-3): 4 copies of each protein in the complex

B2: 6×His-SKR-1^WT (natural protein)
chain: MADQKKVSEAAKEREIKISSSDNEIFLVPRNVIRLSNTINTLLMDLGLDDEEGTNAEPIPVQNVTASILKKVISWCNHHHSDPISTEDSDNREKRTDDIGSWDVEFLKVDQGTLFELILAANYLDIKGLLDVTCKTVANMIKGKSPEEIRRTFNIKNDFTPEEEEQIRKENAWCED
- stoichiometry N (SEC-MALS): 2

B3: 6×His-SKR-1^I155A,W173A (natural protein)
chain: B2 chain with I155A, W173A
- stoichiometry N (SEC-MALS): 2

B4: SKR-1 (recombinant, untagged) (natural protein)
chain: B2 chain
- stoichiometry N (6×His-SYP-3): 4 copies of each protein in the complex

B5: SYP-2 (recombinant, untagged) (natural protein)
chain: MNSAHRSSLKKRPGPQDDRRVSFASPVSSSQKTAAVTVAAQTKQPAKAKNLRTMHSTPKKSKPAHDVADIISLVSKQSDILDDVSEIEHKMIKQAKMTQDLTMELANSIERIANMALAESKLSDQMEKQSKKLISLEGKTKELVEKANNWSKTLENRVDARSHHSTCLNDVQAAIKIINNAKINNDGFSEDFSAHYDKLLDLVETLEPWADKL
- stoichiometry N (6×His-SYP-3): 4 copies of each protein in the complex
